For assay [1], the target named is T1, spleen tyrosine kinase (SYK) (Homo sapiens, UniProt P43405). The assay is described as follows: microscale thermophoresis (MST) with GFP-fused SYK in cell lysate; supported by in vitro kinase activation of bacterially expressed SYK. The class given is binding. Further details: full-length SYK-EmerGFP (HEK293T lysate). For orientation: In MST a laser heats a spot of the sample, and binding alters the fluorescence response.

For assay [2], the target named is T1, spleen tyrosine kinase (SYK). The assay is described as follows: microscale thermophoresis (MST) with GFP-fused SYK in cell lysate. The class given is binding. Further details: SYK-EmerGFP (HEK293T lysate).
Assay [3] concerns the target PDK1^9CS with Cys21 rescued (human) (UniProt O15530). The assay is described as follows: non-reducing gel and immunoblot; A375 cells in glucose-free medium for 3 h, with or without NAC (5 mM) or GSH (2.5 mM); PDK1 monomer and dimer bands under non-reducing conditions.
Assay [4] addresses PDK1^9CS with Cys23 rescued (human) (UniProt O15530). The description is as above.
In assay [5] the target is T1, spleen tyrosine kinase (SYK). The assay is described as follows: microscale thermophoresis (MST) with GFP-fused SYK in cell lysate; supported by in vitro kinase activation of bacterially expressed SYK. Also noted: full-length SYK-EmerGFP (HEK293T lysate). The class given is binding. This is another data set of the same source.
Assay [6] concerns the target T2, endogenous PDK1 (human (endogenous in A375)), O15530.
T2 chain: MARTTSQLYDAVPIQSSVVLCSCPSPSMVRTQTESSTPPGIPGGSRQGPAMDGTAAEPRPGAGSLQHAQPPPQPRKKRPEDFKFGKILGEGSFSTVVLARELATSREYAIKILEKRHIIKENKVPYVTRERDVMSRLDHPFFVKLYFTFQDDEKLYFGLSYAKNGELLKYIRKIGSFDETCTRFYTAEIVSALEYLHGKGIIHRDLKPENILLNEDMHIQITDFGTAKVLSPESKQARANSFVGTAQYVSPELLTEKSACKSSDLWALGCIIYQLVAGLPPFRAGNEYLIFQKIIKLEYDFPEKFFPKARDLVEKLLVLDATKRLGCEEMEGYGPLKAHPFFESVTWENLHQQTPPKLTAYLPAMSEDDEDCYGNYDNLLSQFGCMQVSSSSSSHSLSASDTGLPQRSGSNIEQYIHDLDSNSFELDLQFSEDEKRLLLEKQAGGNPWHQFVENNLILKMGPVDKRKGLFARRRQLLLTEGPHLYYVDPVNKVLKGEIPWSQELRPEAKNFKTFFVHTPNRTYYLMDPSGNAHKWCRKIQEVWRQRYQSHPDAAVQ
The assay is described as follows: non-reducing gel and immunoblot; A375 cells in glucose-free medium for 3 h, with or without NAC (5 mM) or GSH (2.5 mM); PDK1 monomer and dimer bands under non-reducing conditions. The settings on record: remark: other sources report otherwise. (A western blot detects proteins with antibodies after separation by electrophoresis.)

In assay [7] the target is T3, PDK1 (exogenous, HA- or Flag-tagged) (human), O15530.
T3 chain: T2 chain
The assay is described as above. The settings on record: remark: other sources report otherwise.

For `Nc1ncnc2c1ncn2[C@@H]1O[C@H](COP(=O)(O)OP(=O)(O)O)[C@@H](O)[C@H]1O` [ADP], the Kd in assay [1] is 42.4 ± 19.1 µM.
In turn, `NC(=O)C1=CN([C@@H]2O[C@H](COP(=O)(O)OP(=O)(O)OC[C@H]3O[C@@H](n4cnc5c(N)ncnc54)[C@H](OP(=O)(O)O)[C@@H]3O)[C@@H](O)[C@H]2O)C=CC1` [NADPH] registered a Kd in assay [2] of 232 ± 16.5 µM.
In assay [3], “PDK1^9CS with Cys21 rescued (from UniProt O15530 1-556) (enzyme)” showed a stoichiometry N of 2.
As to “PDK1^9CS with Cys23 rescued (from UniProt O15530 1-556) (enzyme)”, in assay [4], the stoichiometry N is 2.
Regarding `NC(=O)c1ccc[n+]([C@@H]2O[C@H](COP(=O)([O-])OP(=O)(O)OC[C@H]3O[C@@H](n4cnc5c(N)ncnc54)[C@H](OP(=O)(O)O)[C@@H]3O)[C@@H](O)[C@H]2O)c1` [NADP^+], binding in assay [5] was characterised by a dissociation constant (Kd) of 69.1 ± 16.1 µM.

B1: endogenous PDK1, O15530 1-556 (enzyme)
chain: T2 chain
B1 came in with a stoichiometry N in assay [6] of 2.

B2: PDK1 (exogenous, HA- or Flag-tagged), O15530 1-556 (enzyme)
chain: T2 chain
Take B2: in assay [7], the stoichiometry N worked out at 2.

The term Kd denotes a measure of binding affinity in units of concentration. Usually stoichiometry N stands for a count of units in the complex or per binding partner.

These data come from paper PMC12331947, “Activation of AKT via a dual mechanism enhances the susceptibility of melanoma cells to glucose deprivation” (Cell Death & Disease, 2025).
